Test [1] addresses EcoKI Type I restriction/modification enzyme (R2M2S1) (E. coli, UniProt P08956 1-1170; P08957 1-529; P05719 1-464). Briefly: cell-based or functional assay.
In test [2] the target is T1, M.EcoKI (the M2S1 methyltransferase core of the EcoKI Type I RM enzyme) (E. coli, UniProt P08957 1-529; P05719 1-464).
T1 sequence 1: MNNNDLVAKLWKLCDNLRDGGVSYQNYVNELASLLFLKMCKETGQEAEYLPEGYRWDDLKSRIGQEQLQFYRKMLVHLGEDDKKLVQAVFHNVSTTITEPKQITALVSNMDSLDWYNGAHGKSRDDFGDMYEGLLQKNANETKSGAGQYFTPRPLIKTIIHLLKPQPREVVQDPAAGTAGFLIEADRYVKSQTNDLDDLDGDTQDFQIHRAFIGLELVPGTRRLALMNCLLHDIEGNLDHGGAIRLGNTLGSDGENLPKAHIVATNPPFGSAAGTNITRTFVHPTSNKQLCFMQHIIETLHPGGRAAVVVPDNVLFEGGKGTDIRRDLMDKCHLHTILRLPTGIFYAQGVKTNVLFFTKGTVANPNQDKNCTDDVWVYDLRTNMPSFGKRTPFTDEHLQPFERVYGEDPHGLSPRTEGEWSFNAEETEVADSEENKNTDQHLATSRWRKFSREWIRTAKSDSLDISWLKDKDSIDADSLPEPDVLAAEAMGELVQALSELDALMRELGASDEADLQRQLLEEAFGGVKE
T1 sequence 2: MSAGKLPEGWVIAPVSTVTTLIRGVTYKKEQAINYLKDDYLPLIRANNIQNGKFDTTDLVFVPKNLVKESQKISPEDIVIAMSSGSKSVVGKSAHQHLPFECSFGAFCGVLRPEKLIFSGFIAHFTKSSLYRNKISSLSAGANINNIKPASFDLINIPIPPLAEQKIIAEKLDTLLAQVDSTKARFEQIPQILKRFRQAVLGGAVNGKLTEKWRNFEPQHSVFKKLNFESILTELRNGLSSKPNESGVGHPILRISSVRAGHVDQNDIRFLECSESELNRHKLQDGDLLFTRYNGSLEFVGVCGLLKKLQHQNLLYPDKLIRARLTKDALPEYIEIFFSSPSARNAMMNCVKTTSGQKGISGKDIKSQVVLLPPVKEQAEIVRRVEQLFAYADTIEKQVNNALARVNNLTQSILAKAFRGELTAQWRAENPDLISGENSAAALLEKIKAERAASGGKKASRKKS
Briefly: cell-based or functional assay.

Test [3] deals with T1, M.EcoKI (the M2S1 methyltransferase …). Kind of test: ITC; as described in ref. 15 but in 20 mM HEPES buffer, pH 7.0; heat of interaction plotted against the molar ratio of Ocr dimer to M.EcoKI. The settings on record: both partners purified. In general terms: ITC needs no label: the signal is the heat of the interaction.

The term stoichiometry N denotes the number of molecules, sites or subunits per partner or assembly.

Chain of EcoKI Type I restriction/modification enzyme (R2M2S1) (P08956 whole entry, one chain of several): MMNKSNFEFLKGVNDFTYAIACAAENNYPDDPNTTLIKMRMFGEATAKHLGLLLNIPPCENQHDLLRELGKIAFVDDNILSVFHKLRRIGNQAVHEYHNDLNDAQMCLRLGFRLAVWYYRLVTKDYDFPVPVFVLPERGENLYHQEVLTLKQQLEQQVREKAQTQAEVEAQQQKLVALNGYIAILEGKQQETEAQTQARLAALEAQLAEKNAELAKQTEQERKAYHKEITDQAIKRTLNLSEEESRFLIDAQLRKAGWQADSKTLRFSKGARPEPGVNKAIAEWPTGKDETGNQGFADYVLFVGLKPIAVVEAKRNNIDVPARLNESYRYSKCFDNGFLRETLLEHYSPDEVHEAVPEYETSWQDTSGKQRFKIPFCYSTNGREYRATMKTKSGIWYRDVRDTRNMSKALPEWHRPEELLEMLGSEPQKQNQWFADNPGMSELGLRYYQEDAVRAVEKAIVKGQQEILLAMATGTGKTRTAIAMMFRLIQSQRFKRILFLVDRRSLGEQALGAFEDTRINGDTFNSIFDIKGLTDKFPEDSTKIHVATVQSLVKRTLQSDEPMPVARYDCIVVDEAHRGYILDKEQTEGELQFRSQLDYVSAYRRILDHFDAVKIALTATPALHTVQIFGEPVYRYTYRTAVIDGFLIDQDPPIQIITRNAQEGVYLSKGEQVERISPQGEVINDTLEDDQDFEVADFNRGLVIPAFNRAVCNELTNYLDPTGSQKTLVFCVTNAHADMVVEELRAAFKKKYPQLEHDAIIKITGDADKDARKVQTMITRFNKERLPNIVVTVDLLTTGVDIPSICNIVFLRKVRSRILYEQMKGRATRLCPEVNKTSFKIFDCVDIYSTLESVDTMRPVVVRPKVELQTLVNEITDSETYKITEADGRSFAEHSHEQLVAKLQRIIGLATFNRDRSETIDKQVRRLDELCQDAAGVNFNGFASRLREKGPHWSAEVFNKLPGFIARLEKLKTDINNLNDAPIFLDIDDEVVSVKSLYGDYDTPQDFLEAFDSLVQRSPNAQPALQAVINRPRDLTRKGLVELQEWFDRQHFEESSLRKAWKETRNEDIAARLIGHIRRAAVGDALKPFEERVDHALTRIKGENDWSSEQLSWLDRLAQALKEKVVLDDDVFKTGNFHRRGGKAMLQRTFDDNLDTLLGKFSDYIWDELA

B1: Ocr (overcome classical restriction) from bacteriophage T7, wild type (natural protein, UniProt P03775 1-117, looked up)
chain: MAMSNMTYNNVFDHAYEMLKENIRYDDIRDTDDLHDAIHMAADNAVPHYYADIFSVMASEGIDLEFEDSGLMPDTKDVIRILQARIYEQLTIDLWEDAEDLLNEYLEEVEEYEEDEE
notes: Ocr, product of bacteriophage T7 gene 0.3; homodimer of a polypeptide of 116 amino acids (34 acidic and 6 basic residues per monomer); also called wild-type Ocr; gene 0.3 protein
As for B1, the “in vivo antirestriction: efficiency of plating of phage lambda v.o on E. coli NM1049(DE3) (r+m+, EcoKI) relative to NM1261(DE3) (r-m-), strains expressing Ocr (vector alone 5x10^-5)” value in test [1] is 4 eop. Also, in test [2], the “in vivo antimodification: efficiency of plating on E. coli NM1041 (r+m+) relative to NM1057 (r-m+) of phage lambda v.o recovered from NM1057 expressing Ocr (vector alone 1)” value amounted to 0.00014 eop. In addition, the “stoichiometry N” value in test [3] is 1 Ocr dimer per M.EcoKI.

Values taken from publication PMC4872106, “The evolutionary pathway from a biologically inactive polypeptide sequence to a folded, active structural mimic of DNA” (Nucleic Acids Research, 2016).
